Source: the supplement of paper PMC12855868

B1: library; numbered along this chain (parent)
chain: MAAAGGARLLRAASAVLGGPAGRWLHHAGSRAGSSGLLRNRGPGGSAEASRSLSVSARARSSSEDKITVHFINRDGETLTTKGKVGDSLLDVVVENNLDIDGFGACEGTLACSTCHLIFEDHIYEKLDAITDEENDMLDLAYGLTDRSRLGCQICLTKSMDNMTVRVPETVADARQSIDVGKTS

Variants of: B1
Assay: scaled log2 fold change in cell abundance, elesclomol vs control (0 = silent mean, 1 = nonsense mean) (scaled log2 ratio); higher = higher viability under elesclomol (loss of FDX1 cuproptosis function)
Details: glucose 10 mM
Protocol: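 Deep mutational scan of full-length human FDX1: a pooled saturation-mutagenesis ORF library (every residue 2-184 mutated to all 19 amino acids plus stop, and silent codons where available) was expressed by lentivirus in FDX1-knockout ABC1 (14 days) or HEK293T (11 days) cells grown with elesclomol (ES) or DMSO control. Variant abundance came from ORF sequencing. The log2 fold change (ES vs control, mean of duplicates) was centred on the silent-variant mean (0) and scaled to the nonsense-variant mean (1). Higher values mean greater viability under ES, i.e. loss of FDX1 function in cuproptosis.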

[1] = with ABC1 FDX1 KO, elesclomol 5 nM, 14 days
[2] = with HEK293T FDX1 KO, elesclomol 40 nM, 11 days
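Further: variant abundance is its share of total variant reads in each endpoint sample, from next-generation sequencing of the integrated ORF PCR-amplified out of genomic DNA.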

Variant | scaled log2 fold change [1] | scaled log2 fold change [2]
N40F | -0.01 | 0.266
N40R | 0.387 | 0.0477
N40Y | -0.412 | -0.381
N40L | -0.507 | 0.239
N40K | -0.0431 | 0.421
N40M | -0.291 | 0.304
N40V | 0.408 | -0.147
N40C | -0.214 | 1.09
N40S | 0.213 | 0.0876
N40W | -0.166 | -0.235
N40D | -0.359 | -0.577
N40T | -0.748 | -0.708
N40Q | -0.307 | 0.243
N40I | 0.554 | -0.704
N40E | 0.118 | 
N40P | -0.752 | 0.374
L37Y | 0.353 | 0.0859
L37S | 0.557 | -0.131
L37V | 0.412 | 
L37T | 0.382 | 0.567
L37W | 0.235 | -0.0987
L37R | -0.0271 | 0.0954
R39C | -0.483 | 0.689
R39H | 0.0443 | -0.509

Variant | scaled log2 fold change [1] | scaled log2 fold change [2]
R39G | 0.577 | 0.061
R39Y | 0.0455 | -0.31
R39F | 0.0891 | -0.0588
R39K | -0.687 | -0.451
R39W | 0.0801 | 0.13
R39V | 0.374 | -0.208
R39N | -0.39 | -0.278
R39I | -0.111 | 0.989
R39D | -0.217 | 1.07
R39S | 0.489 | 0.0758
R39L | -0.142 | -0.141
R39A | 0.0642 | -0.565
R39T | -0.117 | 0.0293
R39Q | -0.432 | 0.178
R39M | 0.188 | 0.344
R39P | -0.972 | -0.296
R39E | -0.217 | 0.936
S50D | -0.421 | -0.999
S50E | 0.344 | 0.116
S50C | 0.19 | 0.37
S50G | 0.758 | 
S50H | 0.126 | 0.0217
S50A | -0.353 | 0.141
G44L | -0.1 | 0.155

Variant | scaled log2 fold change [1] | scaled log2 fold change [2]
G44E | 0.197 | 1.12
G44P | -0.094 | 0.309
G44D | -0.0132 | -0.461
G44I | 0.034 | 0.323
G44H | -0.319 | 
G44W | 0.253 | 0.857
G44Y | 0.198 | -0.79
G44M | 0.13 | 0.703
G44Q | 0.137 | 0.433
G44A | 0.246 | 2.06
G44C | -0.366 | 0.858
G44K | 0.187 | -0.0828
G44T | -0.238 | 0.0578
G44F | -0.255 | -0.00392
G44N | 0.0836 | -0.289
G44R | 0.286 | 0.0773
G44V | -0.00617 | -0.478
G44S | 0.141 | -0.291
G42A | -0.139 | 0.0969
G42K | 0.0974 | 0.00685
G42Y | 0.307 | 
G42T | 0.268 | 0.377
G42F | -0.0705 | -0.21
G42L | 0.249 | 0.513

Variant | scaled log2 fold change [1] | scaled log2 fold change [2]
G42S | 0.232 | -0.298
G42W | 0.29 | 1
G42E | -0.302 | 0.67
G42I | 0.277 | 0.513
G42D | -0.168 | 0.162
G42R | 0.1 | -0.362
G42H | 0.257 | -0.419
G42N | 0.133 | -0.235
G42P | 0.28 | -0.219
G42Q | 0.242 | -0.336
G42V | 0.365 | -0.32
G42M | 0.0351 | 0.622
G42C | 0.12 | 0.316
S46Y | 0.737 | 0.775
S46N | 0.338 | 0.643
S46R | 0.93 | 0.639
S46E | 0.844 | 0.526
S46L | 0.572 | 0.692
S46D | 0.694 | 0.458
S46F | 0.279 | 0.769
S46G | 0.864 | 0.651
S46I | 0.589 | 0.715
S46T | 0.617 | 0.182
S46V | 0.489 | 0.421

Variant | scaled log2 fold change [1] | scaled log2 fold change [2]
S46C | 0.738 | 0.494
S46K | 0.678 | 0.519
S46M | 0.376 | 0.185
S46H | 0.263 | 1.09
S46P | 0.0875 | 0.866
S46Q | 0.68 | 0.186
S46A | 0.558 | 0.128
G45C | 0.409 | -0.145
G45H | 0.0762 | 0.865
G45S | 0.0305 | -0.567
G45M | 0.116 | -0.315
G45N | 0.148 | 0.842
G45K | 0.0509 | -0.713
G45E | 0.346 | 1.07
G45I | -0.00298 | -0.325
G45T | 0.167 | -0.525
G45A | 0.315 | -0.00746
G45F | -0.17 | -0.167
G45W | 0.411 | 0.942
G45D | -0.348 | 0.907
G45R | 0.363 | -0.475
G45L | 0.411 | -0.007
G45Q | 0.0494 | 0.513
G45P | -0.0714 | -0.0345

Variant | scaled log2 fold change [1] | scaled log2 fold change [2]
G45V | 0.149 | -0.648
G45Y | 0.16 | 0.922
L38E | 0.019 | 0.931
L38Q | -0.878 | -0.206
L38W | -0.0179 | 
L38D | 0.132 | -0.187
L38Y | -0.0523 | -0.184
L38C | -0.631 | 0.0841
L38S | -0.172 | -0.0978
L38K | -0.0234 | 0.601
L38G | -0.74 | 
L38N | 0.377 | 0.121
L38F | 0.294 | 0.135
L38P | -0.12 | 0.667
L38M | 0.492 | 1.02
L38I | -0.615 | 0.0108
L38V | -0.109 | 
L38H | 0.153 | 0.35
L38T | 0.403 | 0.953
L38A | -0.113 | 
L38R | 0.333 | 1.23
R41G | -0.751 | 0.252
R41P | -0.0791 | -0.655
R41I | -0.144 | 0.109

Variant | scaled log2 fold change [1] | scaled log2 fold change [2]
R41N | 0.199 | -0.371
R41A | 0.281 | 0.851
R41C | -0.0654 | -0.255
R41S | -0.22 | 0.473
R41H | 0.145 | -0.535
R41D | 0.137 | -0.209
R41W | 0.107 | 0.227
R41T | 0.311 | 0.274
R41M | 0.173 | 0.0788
R41F | 0.347 | -0.469
R41Q | -0.31 | 0.698
R41Y | -0.195 | -0.051
R41E | 0.0687 | -0.798
R41V | -0.196 | -0.0931
R41L | 0.167 | 0.278
R41K | 0.264 | -0.114
A47C | 0.788 | 1.53
A47N | 0.833 | 1.56
A47S | 0.89 | 0.276
A47E | 0.691 | 0.694
A47P | 0.733 | 0.555
A47M | 0.779 | 0.799
A47L | 0.835 | 0.437
A47T | 0.83 | 0.802

Variant | scaled log2 fold change [1] | scaled log2 fold change [2]
A47K | 0.89 | 0.778
A47W | 0.856 | 0.727
A47R | 0.994 | 1.12
A47D | 0.728 | 0.746
A47G | 0.844 | 0.78
A47I | 0.83 | 0.523
A47Y | 0.8 | 0.534
A47H | 0.813 | 1.05
A47Q | 0.722 | 0.93
A47F | 0.852 | 1.03
A47V | 0.764 | 0.63
A49R | 0.181 | 
A49H | 0.394 | 0.441
A49M | -0.695 | -1.02
A49E | 0.155 | 
A49T | 0.0135 | 
A49G | -0.302 | 0.424
A49K | 0.256 | -0.293
A49V | -0.0734 | 
A49N | -0.529 | -0.853
A49W | 0.372 | -0.679
A49D | 0.201 | 
A49I | 0.653 | 1.22
A49Q | 0.504 | 0.944

Variant | scaled log2 fold change [1] | scaled log2 fold change [2]
A49S | 0.123 | 1.82
A49P | 0.382 | 0.203
A49L | -1.05 | -0.62
A49F | 0.00966 | -0.0173
A49C | 0.313 | -0.749
A49Y | 0.29 | -1.02
E48V | 0.47 | 0.255
E48A | 0.411 | 0.683
E48N | 0.628 | 1.08
E48C | 0.731 | 0.336
E48M | 0.829 | 0.835
E48R | 0.787 | 0.683
E48L | 0.58 | 1.05
E48H | 0.521 | 0.92
E48K | 0.46 | 0.746
E48T | 0.74 | -0.184
E48Q | 0.747 | 0.877
E48W | 0.73 | 0.677
E48G | 0.667 | 0.934
E48I | 0.367 | 0.905
E48F | 0.809 | 0.523
E48Y | 0.494 | 1.46
E48S | 0.616 | 0.679
E48P | 0.619 | 0.304

Variant | scaled log2 fold change [1] | scaled log2 fold change [2]
E48D | 0.623 | 0.469
P43N | 0.14 | 1.24
P43S | -0.443 | -0.3
P43R | 0.273 | 0.259
P43I | 0.392 | -0.356
P43F | -0.0201 | 0.822
P43H | 0.442 | -0.548
P43A | -0.0498 | 1.29
P43M | 0.182 | 0.0394
P43T | 0.0182 | -0.259
P43Y | 0.138 | 0.846
P43D | -0.289 | -0.259
P43K | 0.0332 | 0.445
P43L | 0.34 | 1.08
P43W | -0.19 | 0.313
P43C | -0.0655 | 0.841
P43V | 0.149 | 0.888
P43Q | 0.274 | -0.32
P43G | 0.283 | 0.825
P43E | 0.224 | 0.236
